Reference: patent publication US20140350088A1

Biological target: human C5a receptor (human) (UniProt P21730)
Assay: cell-based or functional assay

human C5a receptor (human), sequence (P21730 whole entry): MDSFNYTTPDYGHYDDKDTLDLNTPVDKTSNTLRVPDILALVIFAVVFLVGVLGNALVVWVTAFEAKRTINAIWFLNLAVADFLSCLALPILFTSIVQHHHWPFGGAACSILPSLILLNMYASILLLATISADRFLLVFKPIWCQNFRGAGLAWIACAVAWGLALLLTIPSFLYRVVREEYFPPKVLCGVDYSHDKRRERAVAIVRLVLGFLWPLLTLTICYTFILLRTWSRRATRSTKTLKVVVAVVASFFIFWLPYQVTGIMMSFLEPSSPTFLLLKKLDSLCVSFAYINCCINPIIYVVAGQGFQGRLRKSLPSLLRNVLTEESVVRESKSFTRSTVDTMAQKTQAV

half-maximal effective concentration (EC50) in chemotaxis assay of BA/F3/huC5aR cells [nM]	Substance
0.1	recombinant human C5a (from UniProt P01031 678-751) (ligand)
0.3	mouse C5a (from UniProt P06684 679-755) (ligand)
